Experimental data as given in paper doi:10.1101/2021.01.20.427433.

Target: 6xHis-XRCC4^1-164 (C-to-A), wildtype for the SIMs (human) (UniProt Q13426)
Experiment: SPR

fold increase in KD against full-length XRCC4: 3 fold
Substance: polySUMO2 chains (enzymatically linked via the internal K11) (from UniProt P61956 1-95)
